Experimental data taken from IntAct's records for PubMed 26356530.

B1: Histone deacetylase 3 (Homo sapiens), O15379 (parent)
chain: MAKTVAYFYDPDVGNFHYGAGHPMKPHRLALTHSLVLHYGLYKKMIVFKPYQASQHDMCRFHSEDYIDFLQRVSPTNMQGFTKSLNAFNVGDDCPVFPGLFEFCSRYTGASLQGATQLNNKICDIAINWAGGLHHAKKFEASGFCYVNDIVIGILELLKYHPRVLYIDIDIHHGDGVQEAFYLTDRVMTVSFHKYGNYFFPGTGDMYEVGAESGRYYCLNVPLRDGIDDQSYKHLFQPVINQVVDFYQPTCIVLQCGADSLGCDRLGCFNLSIRGHGECVEYVKSFNIPLLVLGGGGYTVRNVARCWTYETSLLVEEAISEELPYSEYFEYFAPDFTLHPDVSTRIENQNSRQYLDQIRQTIFENLKMLNHAPSVQIHDVPADLLTYDRTDEADAEERGPEENYSRPEAPNEFYDGDHDNDKESDVEI
partner: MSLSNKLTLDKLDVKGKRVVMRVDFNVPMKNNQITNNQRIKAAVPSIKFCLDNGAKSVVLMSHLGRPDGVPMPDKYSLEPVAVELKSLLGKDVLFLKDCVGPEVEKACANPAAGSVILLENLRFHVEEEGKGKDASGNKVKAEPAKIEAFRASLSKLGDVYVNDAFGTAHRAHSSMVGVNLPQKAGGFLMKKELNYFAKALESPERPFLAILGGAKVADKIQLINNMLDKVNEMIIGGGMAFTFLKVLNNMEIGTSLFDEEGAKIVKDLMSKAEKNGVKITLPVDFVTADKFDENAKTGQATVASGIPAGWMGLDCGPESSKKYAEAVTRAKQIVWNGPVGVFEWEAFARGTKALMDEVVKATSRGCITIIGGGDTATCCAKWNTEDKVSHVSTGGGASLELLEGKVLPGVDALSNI

Variants of: B1
Settings: with pgk1_human PGK1, P00558

effect of a mutation on the interaction	Variant
decreasing interaction strength	MAKTVAYFYDPDVGNFHYGAGHPMKPHRLALTHSLVLHYGLYKKMIVFKPYQASQHDMCRFHSEDYIDFLQRVSPTNMQGFTKSLNAFNVGDDCPVFPGLFEFCSRYTGASLQGATQLNNKICDIAINWAGGLHHAKKFEASGFCYVNDIVIGILELLKYHPRVLYIDIDIHHGDGVQEAFYLTDRVMTVSFHKYGNYFFPGTGDMYEVGAESGRYYCLNVPLRDGIDDQSYKHLFQPVINQVVDFYQPTCIVLQCGADSLGCDRLGCFNLSIRGHGECVEYVKSFNIPLLVLGGGGYTVRNVARCWTYETSLLVEEAISEELPYSEYFEYFAPDFTLHPDVSTRIENQNSRQYLDQIRQTIFENLKMLNHAPSVQIHDVPADLLTYDRTDEADAEERGPEENYSRPEAPNEFYDGDHDNDKEADVEI [S424A]

Variants of: B1
Settings: with PGK1, P00558-1

effect of a mutation on the interaction	Variant
decreasing interaction strength	MAKTVAYFYDPDVGNFHYGAGHPMKPHRLALTHSLVLHYGLYKKMIVFKPYQASQHDMCRFHSEDYIDFLQRVSPTNMQGFTKSLNAFNVGDDCPVFPGLFEFCSRYTGASLQGATQLNNKICDIAINWAGGLHHAKKFEASGFCYVNDIVIGILELLKYHPRVLYIDIDIHHGDGVQEAFYLTDRVMTVSFHKYGNYFFPGTGDMYEVGAESGRYYCLNVPLRDGIDDQSYKHLFQPVINQVVDFYQPTCIVLQCGADSLGCDRLGCFNLSIRGHGECVEYVKSFNIPLLVLGGGGYTVRNVARCWTYETSLLVEEAISEELPYSEYFEYFAPDFTLHPDVSTRIENQNSRQYLDQIRQTIFENLKMLNHAPSVQIHDVPADLLTYDRTDEADAEERGPEENYSRPEAPNEFYDGDHDNDKEADVEI [S424A]
